Measurements reported in US20160377619A1 (published 2016).

Biological target: lysyl-tRNA synthetase (KRS), recombinant (human, UniProt Q15046 1-597)
Test: SPR

Sequence of lysyl-tRNA synthetase (KRS), recombinant (Q15046 whole entry): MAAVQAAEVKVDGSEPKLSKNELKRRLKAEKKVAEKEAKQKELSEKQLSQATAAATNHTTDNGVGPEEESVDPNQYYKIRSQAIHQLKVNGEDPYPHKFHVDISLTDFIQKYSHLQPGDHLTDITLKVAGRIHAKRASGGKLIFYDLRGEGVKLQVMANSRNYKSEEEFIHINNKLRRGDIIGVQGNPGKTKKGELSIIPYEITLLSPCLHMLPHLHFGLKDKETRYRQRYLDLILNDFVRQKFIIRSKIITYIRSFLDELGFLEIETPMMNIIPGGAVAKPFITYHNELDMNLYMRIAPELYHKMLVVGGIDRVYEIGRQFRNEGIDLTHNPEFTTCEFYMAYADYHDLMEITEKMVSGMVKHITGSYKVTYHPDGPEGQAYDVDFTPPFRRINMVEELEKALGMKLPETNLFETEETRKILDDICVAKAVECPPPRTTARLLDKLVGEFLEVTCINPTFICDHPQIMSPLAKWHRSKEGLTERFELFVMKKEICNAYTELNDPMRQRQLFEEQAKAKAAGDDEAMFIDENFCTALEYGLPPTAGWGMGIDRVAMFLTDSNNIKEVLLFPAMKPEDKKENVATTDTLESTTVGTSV

Kd: 110 nM
B1: anti-KRS scFv Biocon-K1 (scFv)
scFv: EVQLLESGGGLVQPGGSLRLSCAASGFTFSNYAMSWVRQAPGKGLEWVSGISPSSGDTYYADSVKGRFTISRDNSKNTLYLQMNSLRAEDTAVYYCAKGVWWYHPLLFDYWGQGTLVTVSSGGGGSGGGGSGGGGSQSVLTQPPSASGTPGQRVTISCSGSSSNIGNNTVSWYQQLPGTAPKLLIYANSKRPSGVPDRFSGSKSGTSASLAISGLRSEDEADYYCGAWDSSLSGYVFGGGTKLTVL
